According to PMC9834060:

Legend:
Assay in all cases: cryo-EM structure; BlaR1 in LMNG, purified by GraDeR glycerol gradient, desalted into 150 mM sodium chloride, 20 mM HEPES pH 7.5; grids blotted at 4 °C; BlaR1(F284A) also with ampicillin (1 mM, then 250 µM)
[1] = molecular target: S. aureus BlaR1 F284A mutant acylated with ampicillin (BlaR1(F284A)–ampicillin) (S. aureus) (UniProt Q00419)
[2] = molecular target: S. aureus BlaR1 F284A mutant (BlaR1(F284A)) (S. aureus) (UniProt Q00419)
[3] = molecular target: S. aureus BlaR1, wild type (BlaR1(WT)) (S. aureus) (UniProt Q00419)

## S. aureus BlaR1 F284A mutant acylated with ampicillin (BlaR1(F284A)–ampicillin) (from UniProt Q00419 1-585) (receptor)
[1]
  stoichiometry N: 2

## S. aureus BlaR1 F284A mutant (BlaR1(F284A)) (from UniProt Q00419 1-585) (receptor)
[2]
  stoichiometry N: 2

## S. aureus BlaR1, wild type (BlaR1(WT)) (from UniProt Q00419 1-585) (receptor)
[3]
  stoichiometry N: 2
